± gives the standard deviation of the averaged measurements.
What follows are sequences tested on Saccharomyces cerevisiae (assay: protein stability index of tFT-peptide fusion (C-terminal peptide) (PSI (0-1 scale)); higher = more stable (slower turnover)). Settings: genetic background: wild type; temperature: 30 C.
Description: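 Multiplexed protein stability (MPS) profiling in S. cerevisiae. Random 12-aa peptides (tFT-X12 library) are fused to the C-terminus of a sfGFP-mCherry tandem fluorescent timer, after mCherry and a GGGS linker. Cells are FACS-sorted into 8 mCherry/sfGFP bins and deep-sequenced. The protein stability index (PSI) is the read-weighted bin average, scaled from 0 (unstable) to 1 (stable). Only peptides with >10 reads are reported; cells were grown at 30 °C in SC-His with glucose.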
GYTSGEEGAVTA gave a protein stability index of 0.624 ± 0.016.
For HAPALSSTPRLL, the protein stability index was 0.6836 ± 0.0064.
For HAPPPPDASPPL, the protein stability index was 0.677 ± 0.051.
Sequence HATPPAPHSVSS has a protein stability index of 0.774 ± 0.036.
HCFWVVTGGSWF gave a protein stability index of 0.691 ± 0.06.
Sequence HCPIPWASLNCL has a protein stability index of 0.665 ± 0.0082.
In the case of HDAPTRQLTLPG, the protein stability index is reported as 0.663 ± 0.031.
For HDETKAYLAPGQ, the protein stability index was 0.697 ± 0.037.
HFGPRTTLCAPD gave a protein stability index of 0.666 ± 0.034.
With HGLESMNRYRWI the protein stability index was 0.555 ± 0.016.
Work on HGLLDPLSILLY yielded a protein stability index of 0.668 ± 0.013.
Sequence HGNFLTALVGRI has a protein stability index of 0.669 ± 0.046.
In the case of HGSVGRIAHVLS, the protein stability index is reported as 0.6672 ± 0.0062.
HGVQEFRVAPEF gave a protein stability index of 0.738 ± 0.035.
HHEDGRPTCQAN showed a protein stability index of 0.677 ± 0.046.
Sequence HHPLGSPPVPPP has a protein stability index of 0.729 ± 0.039.
HHPTQRPRHRLG was tested, and the protein stability index was 0.683 ± 0.082.
Sequence HIKSENKEKGKI has a protein stability index of 0.624 ± 0.022.
Sequence HILSPRPAIGVL has a protein stability index of 0.612 ± 0.021.
HIPRLPRPTRAP gave a protein stability index of 0.682 ± 0.059.
HIYHIRFANKRG showed a protein stability index of 0.657 ± 0.013.
In the case of HKNPQKEVIAKT, the protein stability index is reported as 0.744 ± 0.058.
Work on HLDVRGTRRMGT yielded a protein stability index of 0.669 ± 0.042.
With HLGPPPGRVFAV the protein stability index was 0.6194 ± 0.0052.
HLPGFAVVFPFP was tested, and the protein stability index was 0.717 ± 0.032.
In the case of HLPPMLSCTLRS, the protein stability index is reported as 0.657 ± 0.046.
HLPRHVSLLGPP showed a protein stability index of 0.671 ± 0.0079.
For HLPSPLPSPSFH, the protein stability index was 0.6061 ± 0.0017.
Sequence HLRPRYSLVPAT has a protein stability index of 0.651 ± 0.048.
HLSPGRLPPPVQ showed a protein stability index of 0.7136 ± 0.006.
In the case of HMLSGRSFVRGD, the protein stability index is reported as 0.69 ± 0.038.
HNFYKLNLDHLK gave a protein stability index of 0.649 ± 0.061.
Work on HPGPPPPPAAAA yielded a protein stability index of 0.679 ± 0.007.
HPKPNLPPAAVH was tested, and the protein stability index was 0.6854 ± 0.0049.
For HPLFCPPPPPLA, the protein stability index was 0.708 ± 0.036.
In the case of HPLPPPPRSPPS, the protein stability index is reported as 0.732 ± 0.011.
HPNGVMIGKNPT gave a protein stability index of 0.702 ± 0.023.
HPNKPTYLPSPY was tested, and the protein stability index was 0.768 ± 0.1.
HPPAPSPPETSL gave a protein stability index of 0.69756 ± 0.0005.
With HPPPFRLPPAPP the protein stability index was 0.639 ± 0.0072.
In the case of HPPPSLAASPPP, the protein stability index is reported as 0.544 ± 0.017.
HPPPSNYWPSSA showed a protein stability index of 0.658 ± 0.084.
HPPTLCPLSRRH gave a protein stability index of 0.659 ± 0.047.
HPRRLRPAHTPP showed a protein stability index of 0.725 ± 0.0075.
Work on HPSFPPHRSPAS yielded a protein stability index of 0.78 ± 0.023.
HPSRWPSPRAIL showed a protein stability index of 0.684 ± 0.051.
For HPTRPHLPPFAP, the protein stability index was 0.681 ± 0.066.
For HQKQCRSNRHRG, the protein stability index was 0.657 ± 0.05.
HRAFAAGFGVWG showed a protein stability index of 0.669 ± 0.067.
In the case of HRCPSPPWFHPS, the protein stability index is reported as 0.752 ± 0.071.
HRILILSGLRAG was tested, and the protein stability index was 0.626 ± 0.041.
With HRPSPLPPRVPL the protein stability index was 0.673 ± 0.033.
In the case of HRRASYVLSPLS, the protein stability index is reported as 0.7413 ± 0.0073.
Sequence HRRGRVAQFAIS has a protein stability index of 0.644 ± 0.029.
In the case of HRVNKKNCEEKT, the protein stability index is reported as 0.631 ± 0.053.
For HRVVAATKSPSA, the protein stability index was 0.727 ± 0.064.
Work on HRYSGSTFSAVL yielded a protein stability index of 0.728 ± 0.11.
HSLRPPPRHQQK gave a protein stability index of 0.689 ± 0.02.
HSNPPPRRHPTI gave a protein stability index of 0.756 ± 0.068.
Work on HSQPPRRPSTNP yielded a protein stability index of 0.792 ± 0.033.
For HSSLPQPRELRT, the protein stability index was 0.674 ± 0.021.
HSSPHFTTTKTP was tested, and the protein stability index was 0.7081 ± 0.0016.
HSVPSCPKFSII gave a protein stability index of 0.66732 ± 0.00044.
Work on HTDSKVVILFVP yielded a protein stability index of 0.592 ± 0.014.
With HTGLRASSPNST the protein stability index was 0.753 ± 0.052.
HTPAPLPPPLHP gave a protein stability index of 0.691 ± 0.011.
Sequence HTPPAPLPSSPH has a protein stability index of 0.749 ± 0.0079.
HTPPMVGMLCLG was tested, and the protein stability index was 0.6 ± 0.032.
For HTSFQTNASPKD, the protein stability index was 0.727 ± 0.031.
In the case of HVDSLPRPLLPS, the protein stability index is reported as 0.716 ± 0.056.
HVLCRAFLFLLP showed a protein stability index of 0.642 ± 0.016.
HVLHKPYRPGRP gave a protein stability index of 0.601 ± 0.0069.
In the case of HVPHFCLSPTII, the protein stability index is reported as 0.758 ± 0.14.
In the case of HVPRFLPFLSSL, the protein stability index is reported as 0.739 ± 0.033.
For HVVLPPRYCISR, the protein stability index was 0.696 ± 0.015.
For HWRRGGRSGGDR, the protein stability index was 0.71 ± 0.033.
Sequence HWTLRRGTGIEL has a protein stability index of 0.6693 ± 0.0061.
With HYEIFSCDPGCD the protein stability index was 0.746 ± 0.024.
HYLHRDSLLRWL showed a protein stability index of 0.6182 ± 0.0033.
Work on HYRLPLPPASPA yielded a protein stability index of 0.701 ± 0.052.
HYSMAPIPHDNR gave a protein stability index of 0.711 ± 0.074.

— the supplement of paper PMC10724198
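Further: PSI is a weighted mean of sequencing reads over stability bins, variants kept only with over 10 reads, mCherry proximal and sfGFP distal, peptide attached via GGGS linker.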
